# Measurements reported in the RNAGym collection of RNA variant scans (doi:10.7554/elife.80360).
# B1: Hammerhead Ribozyme (parent)
# chain: ACCGGAUGUGCUUUCCGGUCUGAUGAGUCCGUGAGGACGAAACAG
# Variants of: B1
# Assay: self-cleavage, relative activity (ratio to wild type); higher = more cleavage; co-transcriptional
row,Variant,self-cleavage
1,A26G A40U,0.412
2,A26G A40G,0.328
3,A26G A40C,0.399
4,A26G A41U,0.25
5,A26G A41G,0.284
6,A26G A41C,0.338
7,G25U C30A,0.293
8,G25U C30G,0.291
9,G25U C30U,0.259
10,G25C G31U,0.358
11,G25C G31C,0.339
12,G25C G31A,0.339
13,G25U A44C,0.42
14,G25U A44G,0.669
15,G25U A44U,0.373
16,A26U A34G,0.482
17,A26U A34U,0.584
18,A26U A34C,0.355
19,A26C G36U,0.355
20,A26C G36C,0.277
21,A26C G36A,0.395
22,A26U C38G,0.318
23,A26U C38A,0.6
24,A26U C38U,0.783

row,Variant,self-cleavage
1,A26C A42C,0.305
2,A26C A42U,0.393
3,A26C A42G,0.371
4,G25A G33C,0.438
5,G25A G33U,0.45
6,G25A G33A,0.379
7,A26U U28G,0.437
8,A26U U28A,0.464
9,A26U U28C,0.646
10,A26C A40G,0.285
11,A26C A40U,0.352
12,A26C A40C,0.274
13,A26U A41C,0.295
14,A26U A41G,0.434
15,A26U A41U,0.29
16,G25U A41C,0.316
17,G25U A41G,0.35
18,G25U A41U,0.337
19,A26G A44C,0.266
20,A26G A44G,0.654
21,A26G A44U,0.347
22,G25U A42U,0.349
23,G25U A42G,0.246
24,G25U A42C,0.29

row,Variant,self-cleavage
1,G25U U32C,0.268
2,G25U U32A,0.32
3,G25U U32G,0.392
4,A26G G33U,0.344
5,A26G G33A,0.401
6,A26G G33C,0.409
7,G25U A37U,0.302
8,G25U A37C,0.294
9,G25U A37G,0.287
10,A26C C30U,0.753
11,A26C C30G,0.33
12,A26C C30A,0.426
13,A26C A34G,0.349
14,A26C A34U,0.344
15,A26C A34C,0.434
16,A26G A37U,0.352
17,A26G A37G,0.424
18,A26G A37C,0.252
19,G27A A40C,0.428
20,G27A A40U,0.304
21,G27A A40G,0.341
22,A26U G31A,0.738
23,A26U G31U,0.748
24,A26U G31C,0.633

row,Variant,self-cleavage
1,G25C U32G,0.281
2,G25C U32A,0.298
3,G25C U32C,0.342
4,G25C C30U,0.314
5,G25C C30A,0.262
6,G25C C30G,0.221
7,G25C A34U,0.327
8,G25C A34C,0.29
9,G25C A34G,0.332
10,A26U C29G,0.475
11,A26U C29A,0.311
12,A26U C29U,0.598
13,A26G G36C,0.307
14,A26G G36A,0.319
15,A26G G36U,0.412
16,A26C A44G,0.803
17,A26C A44U,0.344
18,A26C A44C,0.406
19,G25C A41G,0.359
20,G25C A41C,0.359
21,G25C A41U,0.319
22,G25U,0.331
23,G25C,0.324
24,G25U C38U,0.37

row,Variant,self-cleavage
1,G25U C38G,0.382
2,G25U C38A,0.328
3,G25C U28G,0.311
4,G25C U28C,0.309
5,G25C U28A,0.338
6,A26C U32G,0.42
7,A26C U32C,0.803
8,A26C U32A,0.659
9,G25C G33C,0.272
10,G25C G33U,0.231
11,G25C G33A,0.31
12,A26C G33C,0.559
13,A26C G33U,0.774
14,A26C G33A,0.655
15,A26C C29G,0.303
16,A26C C29A,0.241
17,A26C C29U,0.448
18,G25C A40C,0.359
19,G25C A40G,0.447
20,G25C A40U,0.332
21,A26U C43G,0.415
22,A26U C43U,0.382
23,A26U C43A,0.33
24,G25C G35A,0.344

row,Variant,self-cleavage
1,G25C G35C,0.355
2,G25C G35U,0.357
3,A26U G33U,0.659
4,A26U G33C,0.546
5,A26U G33A,0.961
6,G25U C43A,0.359
7,G25U C43G,0.357
8,G25U C43U,0.36
9,G25A G45U,0.45
10,G25A G45A,0.336
11,G25A G45C,0.447
12,G25U G45C,0.398
13,G25U G45A,0.306
14,G25U G45U,0.323
15,G27A A42C,0.308
16,G27A A42G,0.321
17,G27A A42U,0.301
18,G25C A44U,0.263
19,G25C A44C,0.29
20,G25C A44G,0.556
21,A26G C29G,0.283
22,A26G C29U,0.365
23,A26G C29A,0.402
24,G25U G35C,0.259

row,Variant,self-cleavage
1,G25U G35A,0.282
2,G25U G35U,0.326
3,A26U G27U,0.315
4,A26U G27A,0.518
5,A26U G27C,0.317
6,G25C G36A,0.305
7,G25C G36C,0.281
8,G25C G36U,0.309
9,A26C G39A,0.366
10,A26C G39U,0.351
11,A26C G39C,0.45
12,G25C A37U,0.286
13,G25C A37G,0.321
14,G25C A37C,0.285
15,G25U G31C,0.298
16,G25U G31U,0.419
17,G25U G31A,0.338
18,G25C C38G,0.304
19,G25C C38A,0.367
20,G25C C38U,0.22
21,A26G G45U,0.338
22,A26G G45C,0.389
23,A26G G45A,0.3
